What all share (format): cell-based
For one assay, the system named is C. albicans (ATCC 64549). Description: Microbicidal microplate assay (viable counts), C. albicans. Here is the method: The bacterial strains S. aureus 1800 (CCUG 1800), E. coli 06, and the yeast C. albicans (ATCC 64549) have been used in the microplate assay. All microorganisms were cultured in brain heart infusion medium (BHI) on a shaker over night at 37° C. A volume of the culture was transferred to a new tube with BHI and incubated for two more h on the shaker. The bacteria were harvested in the log phase, washed once and thereafter suspended in the broth used for the microplate assay. The suspension was adjusted spectrophotometrically and diluted to a concentration of approximately 4×10^6 cells per ml at 650 nm. Washed cells were suspended in 0.2% BP (pH 7.0) or BHI medium diluted 1/10 (0.34%, pH 6.7-6.9) (Difco, USA). The concentration of bacterial or fungal cells was spectrophotometrically adjusted. LF or peptide, serially diluted in BHIdil or BP by twofold steps (unless otherwise stated), were added in triplicate to the wells of a microtiterplate (200 ul per well). The bacterial or yeast cell solutions were added in 10 ul volumes to give a final concentration of approximately 2×10^5 cells per ml. The concentration of the stock solution was always checked by viable counts. The microplate was incubated at 37° C. in a humid chamber for 2 h unless otherwise stated. Five ul were taken from each well and added as a drop onto a blood agar plate and incubated over night at 37° C. In some experiments more thorough viable counts were performed and the killing was expressed as remaining colony forming units in relation to the inoculum. The lower limit for detection of microorganisms was 200 CFU/ml. The antimicrobial activity of human LF was analysed by the microbicidal assay described above. Different microbes such as C. albicans, E. coli and S. aureus were analysed with respect to their survival in lactate (not containing the inert gel base, which makes the gel unsuitable for the microbicidal assay) containing LF. […] LF was incubated together with various concentrations of lactate diluted in 0.2% bactopeptone and C. albicans for 2 h. Thereafter each solution was analysed for viable counts.

In a further assay the test system is G. vaginalis (Gv 14). Description: Growth inhibition of G. vaginalis by LF, spectrophotometric, 20 h anaerobic. Particulars: LF in various concentrations, no lactate, 0.34% BHI. Here is the method: The bacteria were incubated in 0.34% BHI under anaerobic conditions for 20 hours.
G. vaginalis and P. bivia were cultured on chocolate-GL-plates for 48 h in anaerobic milieu. The bacteria were harvested and suspended in BHI for further incubation (4 hours at 37° C.). The bacteria were washed twice in Bactopeptone (BP, 0.2%). The concentration was adjusted spectrophotometrically and diluted to 1×10^7 bacteria per ml.
The procedure for the microbicidal assay with regard to G. vaginalis and P. bivia was as described above except that the microplate was incubated under anaerobic conditions (2 h). Thereafter droplets of the solutions were analyzed for viable bacteria on blood agar plates after 48 h of anaerobic incubation at 37° C.
The microbicidal assay was modified in order to obtain survival conditions for G. vaginalis and P. bivia. Instead of 0.2% BP 0.34% BHI was used. The bacterial strains were analyzed with only LF added in various concentrations to the wells (no lactate present). The plate was incubated for 20 hours.

Another assay has as its system L. gasseri. Description: Survival of L. gasseri in lactate with LF. As to conditions: LF 2 mg/ml, lactate 1%, 0.34% BHI, CO2, 3 h. Here is the method:
L. gasseri and L. jensenii were cultured on chocolate-agar plates for 24 h in 5% CO2/95% air. They were thereafter harvested and added to BHI (0.34%). After washing the bacterial solutions were adjusted spectrophotometrically and diluted to 8×10^6 bacteria/ml.
Washed cells were suspended in 0.2% BP (pH 7.0) or BHI medium diluted 1/10 (0.34%, pH 6.7-6.9) (Difco, USA). The concentration of bacterial or fungal cells was spectrophotometrically adjusted. LF or peptide, serially diluted in BHIdil or BP by twofold steps (unless otherwise stated), were added in triplicate to the wells of a microtiterplate (200 ul per well). The bacterial or yeast cell solutions were added in 10 ul volumes to give a final concentration of approximately 2×10^5 cells per ml. The concentration of the stock solution was always checked by viable counts. The microplate was incubated at 37° C. in a humid chamber for 2 h unless otherwise stated. Five ul were taken from each well and added as a drop onto a blood agar plate and incubated over night at 37° C. In some experiments more thorough viable counts were performed and the killing was expressed as remaining colony forming units in relation to the inoculum. The lower limit for detection of microorganisms was 200 CFU/ml.
L. gasseri survived better in the assay system than did L. jensenii. Undiluted lactate (5%) affected the survival of Lactobacillus.

B1: LF: LF from human milk purchased from Sigma; single chain iron-binding glycoprotein (protein, UniProt P02788 20-710, looked up)
Lactotransferrin: GRRRSVQWCAVSQPEATKCFQWQRNMRKVRGPPVSCIKRDSPIQCIQAIAENRADAVTLDGGFIYEAGLAPYKLRPVAAEVYGTERQPRTHYYAVAVVKKGGSFQLNELQGLKSCHTGLRRTAGWNVPIGTLRPFLNWTGPPEPIEAAVARFFSASCVPGADKGQFPNLCRLCAGTGENKCAFSSQEPYFSYSGAFKCLRDGAGDVAFIRESTVFEDLSDEAERDEYELLCPDNTRKPVDKFKDCHLARVPSHAVVARSVNGKEDAIWNLLRQAQEKFGKDKSPKFQLFGSPSGQKDLLFKDSAIGFSRVPPRIDSGLYLGSGYFTAIQNLRKSEEEVAARRARVVWCAVGEQELRKCNQWSGLSEGSVTCSSASTTEDCIALVLKGEADAMSLDGGYVYTAGKCGLVPVLAENYKSQQSSDPDPNCVDRPVEGYLAVAVVRRSDTSLTWNSVKGKKSCHTAVDRTAGWNIPMGLLFNQTGSCKFDEYFSQSCAPGSDPRSNLCALCIGDEQGENKCVPNSNERYYGYTGAFRCLAENAGDVAFVKDVTVLQNTDGNNNEAWAKDLKLADFALLCLDGKRKPVTEARSCHLAMAPNHAVVSRMDKVERLKQVLLHQQAKFGRNGSDCPDKFCLFQSETKNLLFNDNTECLARLHGKTTYEKYLGPQYVAGITNLKKCSTSPLLEACEFLRK
Turning to B1, the inoculate killed worked out at 92% in the assay with C. albicans (ATCC 64549) (LF 2 mg/ml in lactate 1%, 2 h) and 98.2% in the assay on C. albicans (ATCC 64549) (LF 5 mg/ml in lactate 1%, 2 h). Moreover, the “reduction of yeast cells” value in the assay on C. albicans (ATCC 64549) (LF in lactate concentrations 0.2%, 0.04% and 0%, 0.2% bactopeptone, 2 h) was 99.9%. In addition, in the assay with C. albicans (ATCC 64549) (lactate diluted fivefold or more (≦1%), all LF concentrations except 0.5 mg at 1% lactate), the “effect of LF on antimicrobial effect of lactate against C. albicans” value is listed as “enhanced the antimicrobial effect of lactate”. For the same molecule, the “microbicidal activity against C. albicans, LF compared with rHLF” value with C. albicans (ATCC 64549) (without lactate, 0.25 and 0.125 mg/ml, 2 h of incubation) is recorded as “somewhat more active”. For the same molecule, the “growth inhibition of G. vaginalis” value in the assay on G. vaginalis (Gv 14) was “Growth inhibition”. Besides, the “survival of L. gasseri” value in the assay with L. gasseri is reported as 18%.

For the origin of these results see patent publication US20080161234A1, “Composition Comprising Lactic Acid and Lactoferrin” (priority 2004, published 2008).
